Experimental data as given in the DeepSol protein solubility set.

Assay: soluble on expression in E. coli; label from the status in PepcDB or PDB records

| Sequence | soluble on expression in E. coli |
| --- | --- |
| MQGTKIRLMVGGLLLAAASNNVQAEALQPDPAWQQGKLDNGFSWQLLATPQRPSDRIELRLIVNTGSLSENTQEVGFAHLLPRLALMSSASFTPAQLQSLWQQGIDNERPLPPAITSYDFTLYSLSLPNNRPDLLKDALAWLSDTAGNLAVSEQTVNAALNTATDPIATFPQNIQEPWWRYRLKGSSLIGHDPGQPVTQPVDVEKLKQFYQQWYTPDAMTLYVVGNVDSRSIAAQISKAFSELKGKRTAPAAVATLAPLPPEPVSLMNEQAAQDTLSLMWDTPWHPIQDSMALSRYWRSDLAREALFWHIKQVLEKNNQKNLKLGFDCRVQYQRAQCAIHLNTPVENLTANMTFVARELAALRANGLSQAEFDALMTQKNDQLSKLFATYARTDTDILMSQRLRSQQSGVVDIAPEQYQKLRQAFLSGLTLAELNRELKQQLSQDTTLVLMQPKGEPEVNVKALQEIYNGIMAPQTVAEEEVAPAEAVETAPVMPTTAQ | not soluble |
| MGHHHHHHHHHSSGHIDDDDKHMLEASAKATMGQGEQDHFVLKSGHAMPAVGLGTWRAGSDTAHSVRTAITEAGYRHVDTAAEYGVEKEVGKGLKAAMEAGIDRKDLFVTSKIWCTNLAPERVRPALENTLKDLQLDYIDLYHIHWPFRLKDGAHMPPEAGEVLEFDMEGVWKEMENLVKDGLVKDIGVCNYTVTKLNRLLRSAKIPPAVCQMEMHPGWKNDKIFEACKKHGIHITAYSPLGSSEKNLAHDPVVEKVANKLNKTPGQVLIKWALQRGTSVIPKSSKDERIKENIQVFGWEIPEEDFKVLCSIKDEKRVLTGEELFVNKTHGPYRSARDVWDHEN | soluble |
| MIYSRSKLPSEGEILIATVKQVFDYGSYVSLDEYGGLQAFLPWSEVSSKWVKNIRDVLKENRKVIVKVIRVDRRKGTVDVSLKKVTDDERRKKNLQWKKIQRLDKILELVSQKLKLSEKDAWEQVAWKLEAKYGDPITAIEKAVKEGEKILIDAGVPEIWVKPLLEEASKHAEERKVKMSGLITVRTNEPLGVEKIKEVISKALENIEQDYESLLNIKIYTIGAPRYRVDVVGTNPKEASEALNQIISNLIKIGKEENVDISVVKK | soluble |
| MSESGHRKGQAIIVQYSDSSSAYYAYAEGIEDDIIISSRYCPSNEDLLGKWIHLAIDDRSYACDTIQVIDDVFETKVFRGQVEVKINIQFDGRTARGMGMFYNDYFGYICDPNNVLHNTRDGANHNNVWVVRRNAEGLNSRWKVSSEQDDIQHIFPRPENVDKLETVVGVITTHAKLGDFYLVWSPSRPRSTICIAYKFCPSKSNLLGTWAEMRVNRSQRVQRPISVIDALYETRTIFGMTEFRIDFQQTRRFNPDYHLFYHEYFGGILDTLCIIDDVKEGGWYNGWIVYSQHSDASTYWRLAMKQTVLGPYNSPYSCLSPLQQDNNFNEPRNMDPNPPYRTRDRSRSMDRSTRHATRRVDEFTHKRRSPSPEVINVYKEPSRSHANELYDSQKNQYTSHEGHSTSSPTAENRQCHRSRSPEQSNFRPSQTVPGLSSMEQRKAHENVDWGPHRTKNVPPIRSATETPETDHRQDDQSVASTSALYLLDSPGPDPSPKLHLTSEEKELKKLKTKLSRICKLSLSFTANDSVSTPMQLHSLEEYEELIKLTNKFQ | not soluble |
| MRVLIVKTSSMGDVLHTLPALTDAQQAIPEIKFDWVVEEGFAQIPSWHAAVERVIPVAIRRWRKAWFSAPIKAERKAFREALQAENYDAVIDAQGLVKSAALVTRLAHGVKHGMDWQTAREPLASLFYNRKHHIAKQQHAVERTRELFAKSLGYSKPQTQGDYAIAQHFLTNLPTDAGEYAVFLHATTRDDKHWPEEHWRELIGLLADSGIRIKLPWGAPHEEERAKRLAEGFAYVEVLPKMSLEGVARVLAGAKFVVSVDTGLSHLTAALDRPNITVYGPTDPGLIGGYGENQVECRSTSMSLADLPAQTVFQNLNLEIITNKLTSEIR | not soluble |
| SNASYRSTQQITDFTKEILVNGEAVTAFDRQGDLPNVVVTPNFEAGVDQVVDQLAMNDSERDTTAIIGKSLAECEALTKALKARGEQVTLIQTENQRLAPGVIVVPSFLAKGLEFDAVIVWNANQENYQREDERQLLYTICSRAMHELTLVAVGSLSPLLARVNHALYTLNEAK | soluble |
| MSLSQPSFGLSNTATQGTLGQQSLVQPQNQQPQLAAQQLQSQQLSRYPQLIQEQILKCKESWDSNSYKTSLRSFVYNKVNETDAILYTKPTNVSQEEWDKAIENKPSSDLIPIQVFGFEGLNNRNQIQVENVAQARVILNQILDKTKQLQQSHSFETSARIMKVQARNAQIEKRILKLGTQLAILKNRRLPLTISEEKMWGQFQELLKSSNDPAGLGKTNELWARLAVLRERAKTISEQLDSKLVIIGEGHHHHHH | soluble |
| SKYVDRVIAEVEKKYADEPEFVQTVEEVLSSLGPVVDAHPEYEEVALLERMVIPERVIEFRVPWEDDNGKVHVNTGYRVQFNGAIGPYLGGLRFAPSVNLSIMKFLGFEQAFKDSLTTLPMGGAKGGSDFDPNGKSDREVMRFCQAFMTELYRHIGPDIDVPAGDLGVGARELGYMYGQYRKIVGGFYNGVLTGKARSFGGSLVRPEATGYGSVYYVEAVMKHENDTLVGKTVALAGFGNVAWGAAKKLAELGAKAVTLSGPDGYIYDPEGITTEEKINYMLEMRASGRNKVQDYADKFGVQFFPGEKPWGQKVDIIMPCATQNDVDLEQAKKIVANNVKYYIEVANMPTTNEALRFLMQQPNMVVAPSKAVNAGGVLVSGFEMSQNSERLSWTAEEVDSKLHQVMTDIHDGSAAAAERYGLGYNLVAGANIVGFQKIADAMMAQGIAW | soluble |
| MTLDLPELPFPLRPYGPDGRWSYADGVLTGVAGSRQDRFVPPTGESLESVSDAPRLLGAPDGDFQLIARVSVGFRGAFDAGVLYVHVGERAWAKLCLEYSPDVPTVCTVVTRGHSDDCNSFTVEGDSVWFRVSRTGRAFAFHASLDGERWTFVRLFTLGDEEETGSALVGFLAQAPTGEGCTVTYDHLEFRPAWPADLRDGSLEHHHHHH | not soluble |
| MASKITQPDKYSGFLNNYSDLKETTSATGKPVLRWVDPSFDQSKYDSIVWNPITYYPVPKPSTQVGQKVLDKILNYTNTEMKEAIAQRKPLVTTAGPRSLIFRGAITGVDTSKEGLQFYEVVPVALVVAGTQMATGHRTMDTRLYFEGELIDAATNKPVIKVVRQGEGKDLNNESTPMAFENIKQVIDDMATDATMFDVNKKLEHHHHHH | soluble |
| PTAQQLQLTTLDGKPFDPAGLKGKWLLGVADQAACPESCARKLFITRNSHASQGKNVDRVQRVWFITDDGEVPQKVLDAYRGTLMLRARPEQLGRYLLGQDAAAPAALLGPMWVIDPLGNLMLQFPPDVDGVKVRKDISRLLYNSR | not soluble |
| MSHELVELLRSVLKEELQPIHERLDRLEAGQQRLEERQQRLEERQQRLEERQQRLEEQQQRLGEKLDHFIIETRSHFKKIEDKLAGHRRMFDILPHDWRDTTMAIEYLKHKISQHDLEIYQLKKRLELQETK | not soluble |
| MGSDKIHHHHHHMEFSQLRIFQAVAEEGSVTRAAERLHRVPSNLSTRLRQLEEQLGVELFLRERQRLQLSPAGKVLLDYANRMSALRDEALGAVRGGQPAGDFVLGTMYSTAATHLPALLARYHQSYPQVNLQVRAAPSGELLEGLLNHTLDAALVDGPPSLAGLDGVPLCDEQLVLITSPEHPAVLTAKDVAGKAVFTFRQGCSYRMRLEAWYAHAHTPMGRVMEIESYQSMLACVIAGAGVAMMAQSMLDSLPGRDRVRVHSLQAPFDQAVTWLMWRQGMRGANLQAWIDLQQSETINQSSECAATA | not soluble |
| MQGRVKWFNAEKGFGFIEREDGDDVFVHFSAIQQDGYKSLEEGQQVEFDIVDGARGPQAANVVKL | not soluble |
| LPAYEKQVEVVEKDLEQVHICLGTKAFPQNHPRRFEVYLVNTLLGGSMSSRLFQEIRERLGLAYSVYSYVVSHTDAGSLVVYVGTSPEKLDDVLDITVAELKRLKTELVPLPELESAKEQIKGSIYLSLESSDNRMTKLAKNEIYFGRYIPIHELADGFDSVTSRGILELAGEIFDERYLTLALMGKIDSAAFDVSRLAL | not soluble |
| MGSDKIHHHHHHMLKSIKSSGVTAVLDHDGFNKRIRVVRYDGAIEKALPDIVAAAKEENAEKIIVYAKQHDEPILAKQLFAPEGYLKGYYLGHSACVMVRYLSESRRQTDSYTEEQEIIEAIYRTAPRLRNDSTPVFTMRKAETNDMYQLSMLYKKVFRTYPTPVFDPAYIEKTMNANTVYYIMLDHDRLISAASAEINPELGHAEITDCAVLPEYRGHSLTSFLIEALEKEMAGEDIVHVFSLARASSFGMNAVLYHSGYQYGGRLINNCFIAEGLENMNIWCKQL | not soluble |
